Experiments:
[1] = target: beta-subunit of ATP synthase (F1 domain) on the cell surface of human hepatocytes (human) (UniProt P06576)
[2] = target: beta-subunit of ATP synthase (F1 domain) on the cell surface of human hepatocytes (human) (UniProt P06576); experiment: cell-based or functional assay
[3] = target: ectopic ATP synthase of rat liver (rat) (UniProt P10719); experiment: cell-based or functional assay
Chain of ectopic ATP synthase of rat liver (rat) (P10719 47-529, chain 1 of 2): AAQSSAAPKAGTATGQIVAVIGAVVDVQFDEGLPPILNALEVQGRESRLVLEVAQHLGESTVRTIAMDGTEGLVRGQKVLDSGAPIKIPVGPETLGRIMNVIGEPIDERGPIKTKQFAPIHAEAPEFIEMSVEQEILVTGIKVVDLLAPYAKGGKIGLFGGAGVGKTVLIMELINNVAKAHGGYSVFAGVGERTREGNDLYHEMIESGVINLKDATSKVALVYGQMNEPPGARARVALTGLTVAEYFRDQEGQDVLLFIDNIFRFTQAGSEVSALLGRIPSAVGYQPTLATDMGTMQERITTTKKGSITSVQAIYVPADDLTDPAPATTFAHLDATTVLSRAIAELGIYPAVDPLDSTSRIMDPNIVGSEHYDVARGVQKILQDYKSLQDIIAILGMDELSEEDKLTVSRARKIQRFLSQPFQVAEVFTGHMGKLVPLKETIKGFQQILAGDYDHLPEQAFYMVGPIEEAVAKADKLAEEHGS
Chain of ectopic ATP synthase of rat liver (rat) (P15999 44-553, chain 2 of 2, further chain): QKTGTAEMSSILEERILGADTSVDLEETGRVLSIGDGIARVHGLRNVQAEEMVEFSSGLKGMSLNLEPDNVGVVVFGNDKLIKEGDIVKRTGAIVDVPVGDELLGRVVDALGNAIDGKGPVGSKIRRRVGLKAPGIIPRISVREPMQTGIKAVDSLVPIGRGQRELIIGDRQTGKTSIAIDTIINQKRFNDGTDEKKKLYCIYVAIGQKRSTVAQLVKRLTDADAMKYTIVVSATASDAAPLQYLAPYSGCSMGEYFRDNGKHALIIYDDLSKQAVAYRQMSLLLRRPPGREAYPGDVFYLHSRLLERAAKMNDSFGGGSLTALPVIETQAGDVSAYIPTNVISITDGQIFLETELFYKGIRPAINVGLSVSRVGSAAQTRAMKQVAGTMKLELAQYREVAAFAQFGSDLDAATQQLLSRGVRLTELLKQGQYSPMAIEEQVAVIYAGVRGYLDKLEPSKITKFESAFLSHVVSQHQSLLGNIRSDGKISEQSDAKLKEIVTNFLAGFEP

Chain of beta-subunit of ATP synthase (F1 domain) on the cell surface of human hepatocytes (human) (P06576 48-529 E274Q limits assumed): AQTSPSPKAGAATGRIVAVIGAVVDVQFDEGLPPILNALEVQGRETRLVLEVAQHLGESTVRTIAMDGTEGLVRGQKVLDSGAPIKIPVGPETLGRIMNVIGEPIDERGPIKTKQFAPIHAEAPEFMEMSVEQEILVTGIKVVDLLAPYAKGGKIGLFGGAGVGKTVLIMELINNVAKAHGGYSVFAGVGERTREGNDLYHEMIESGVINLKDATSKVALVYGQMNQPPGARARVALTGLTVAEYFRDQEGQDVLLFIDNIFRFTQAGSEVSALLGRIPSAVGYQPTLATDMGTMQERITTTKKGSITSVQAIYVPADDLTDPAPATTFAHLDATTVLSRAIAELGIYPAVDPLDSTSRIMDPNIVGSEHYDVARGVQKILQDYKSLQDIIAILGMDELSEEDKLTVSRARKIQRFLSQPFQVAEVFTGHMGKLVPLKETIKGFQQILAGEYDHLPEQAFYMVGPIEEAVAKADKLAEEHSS

IC50 (read off the curve), 125I-TG-HDL2 internalisation by HepG2 cells, without apoA-I [1]: 8 nM | [α-32P]-ADP generated from [α-32P]-ATP at the HepG2 cell surface (HPLC), 100 nM IF1 [2]: 48 % decrease | TG-HDL2 internalisation by perfused rat liver, 45 min, 1 µM IF1 [3]: < 45 % decrease
B1: IF1 protein, natural inhibitor protein of mitochondrial F1-ATPase (protein, UniProt P01096 26-109, looked up, species assumed)
ATPase inhibitor, mitochondrial: GSESGDNVRSSAGAVRDAGGAFGKREQAEEERYFRARAKEQLAALKKHHENEISHHAKEIERLQKEIERHKQSIKKLKQSEDDD

Source: patent US20040072368A1, “Lipoprotein receptor” (priority 2002, published 2004)
